T1: pyocin AP41 (Pseudomonas aeruginosa (gene amplified …))
T1 chain: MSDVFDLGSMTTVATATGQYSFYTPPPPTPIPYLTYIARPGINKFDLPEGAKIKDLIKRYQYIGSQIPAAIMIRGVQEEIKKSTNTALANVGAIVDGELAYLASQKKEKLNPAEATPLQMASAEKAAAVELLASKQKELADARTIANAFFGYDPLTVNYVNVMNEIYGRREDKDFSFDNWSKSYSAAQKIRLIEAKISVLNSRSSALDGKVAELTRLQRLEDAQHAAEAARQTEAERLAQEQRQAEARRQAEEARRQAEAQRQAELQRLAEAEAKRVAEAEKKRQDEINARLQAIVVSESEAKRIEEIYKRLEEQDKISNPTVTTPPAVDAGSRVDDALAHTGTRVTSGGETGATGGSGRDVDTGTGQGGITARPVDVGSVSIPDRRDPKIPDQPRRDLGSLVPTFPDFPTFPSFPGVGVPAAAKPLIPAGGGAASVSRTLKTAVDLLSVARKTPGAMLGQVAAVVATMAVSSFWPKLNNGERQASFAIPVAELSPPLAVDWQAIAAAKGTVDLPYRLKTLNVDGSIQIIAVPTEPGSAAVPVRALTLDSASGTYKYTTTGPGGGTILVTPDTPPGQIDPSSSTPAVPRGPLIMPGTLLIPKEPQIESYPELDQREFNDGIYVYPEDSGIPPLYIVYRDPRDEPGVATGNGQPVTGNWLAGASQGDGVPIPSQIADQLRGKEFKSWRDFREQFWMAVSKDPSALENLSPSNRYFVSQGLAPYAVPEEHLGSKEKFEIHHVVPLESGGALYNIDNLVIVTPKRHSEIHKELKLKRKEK

B1: pyocin AP41 immunity protein with C-terminal His6-tag (other)
chain: MDIKNNLSDYTESEFLEIIEEFFKNKSGLKGSELEKRMDKLVKHFEEVTSHPRKSGVIFHPKPGFETPEGIVKEVKEWRAANGLPGFKAG
notes: It is not explicitly tied to the C763 construct; also called ImAP41; not shown: C-terminal His6-tag from pET21a (XhoI site in place of the stop codon)
B2: pyocin S2 immunity protein (other)
chain: MKSKISEYTEKEFLEFVKDIYTNNKKKFPTEESHIQAVLEFKKLTEHPSGSDLLYYPNENREDSPAGVVKEVKEWRASKGLPGFKAG
notes: also called ImS2

Experiments:
pyocin AP41 = biological target: T1, pyocin AP41; assay: co-expression in E. coli; complex purified on a His Trap column and by gel filtration
pyocin S2 = pyocin S2 (Pseudomonas aeruginosa, UniProt Q06584 1-689); assay: purification of the complex, method only by reference
Sequence of pyocin S2 (Q06584 whole entry): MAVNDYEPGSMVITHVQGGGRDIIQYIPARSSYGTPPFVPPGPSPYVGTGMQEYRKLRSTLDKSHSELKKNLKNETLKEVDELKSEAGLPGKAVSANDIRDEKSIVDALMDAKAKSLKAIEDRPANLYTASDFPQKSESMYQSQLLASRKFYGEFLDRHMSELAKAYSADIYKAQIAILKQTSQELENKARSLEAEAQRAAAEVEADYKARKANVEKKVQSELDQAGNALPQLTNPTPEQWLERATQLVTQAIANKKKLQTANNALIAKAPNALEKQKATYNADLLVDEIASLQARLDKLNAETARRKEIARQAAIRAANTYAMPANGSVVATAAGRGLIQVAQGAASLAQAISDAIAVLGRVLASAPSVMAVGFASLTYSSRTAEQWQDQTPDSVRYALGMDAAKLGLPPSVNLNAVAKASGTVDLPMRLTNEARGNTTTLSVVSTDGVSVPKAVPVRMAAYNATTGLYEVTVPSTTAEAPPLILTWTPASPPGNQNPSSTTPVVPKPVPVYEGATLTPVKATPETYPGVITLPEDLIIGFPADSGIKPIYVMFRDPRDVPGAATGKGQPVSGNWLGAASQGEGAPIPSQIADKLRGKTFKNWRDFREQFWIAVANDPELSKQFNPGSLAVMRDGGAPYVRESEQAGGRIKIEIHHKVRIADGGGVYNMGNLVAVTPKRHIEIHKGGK

Binder | binding result (pyocin AP41) | binding result (pyocin S2)
B1 | binds | 
B2 |  | binds
